T1: recombinant human TIGIT (human, UniProt Q495A1 22-141, limits assumed)
T1 construct: recombinant human TIGIT used in Carterra SPR; also called hTIGIT
T1 sequence (looked up): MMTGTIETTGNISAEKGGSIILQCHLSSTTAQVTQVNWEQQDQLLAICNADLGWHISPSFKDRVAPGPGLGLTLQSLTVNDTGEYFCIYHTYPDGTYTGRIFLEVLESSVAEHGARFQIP


Molecular target: T1, recombinant human TIGIT
Experiment: SPR Carterra, average
Protocol: Binding affinities of VHH-Fc proteins to recombinant human TIGIT were measured by SPR using a Carterra instrument (Table 10A). […] Average values reported from measurements from 1-2 samples.

| Binder | Kd | koff | kon |
| --- | --- | --- | --- |
| TIGIT-SC68 (Fc fusion, VHH-Fc fusion in assay) VHH: EVQLVESGGGLVQPGGSLRLSCAASGHTFRGYAMGWFRQAPGKEREAVAAISWSGDNTYYADSVKGRFTISADNSKNTAYLQMNSLKPEDTAVYYCGDYEGHWGQGTLVTVSS | 5.49 nM | 0.0103 s⁻¹ | 1.87e+06 M⁻¹ s⁻¹ |
| TIGIT-SC25 (Fc fusion, VHH-Fc fusion in assay) VHH: EVQLVESGGGLVQPGGSLRLSCAASGNTFSGGFMGWFRQAPGKEREWVASVLRGGYTWYADSVKGRFTISADNSKNTAYLQMNSLKPEDTAVYYCTTVGYGDYWGQGTLVTVSS | 22.5 nM | 0.00174 s⁻¹ | 77200 M⁻¹ s⁻¹ |
| TIGIT-SC42 (Fc fusion, VHH-Fc fusion in assay) VHH: EVQLVESGGGLVQPGGSLRLSCAASGNTFSGGFMGWFRQAPGKEREWVATVLRGGYTWYADSVKGRFTISADNSKNTAYLQMNSLKPEDTAVYYCASGGFLASWGQGTLVTVSS | 1400 nM | 0.197 s⁻¹ | 141000 M⁻¹ s⁻¹ |
| TIGIT-SC171 (Fc fusion, VHH-Fc fusion in assay) VHH: EVQLVESGGGLVQPGGSLRLSCAASGFTFDRSWMGWFRQAPGKEREWVASVLRGGYTWYADSVKGRFTISADNSKNTAYLQMNSLKPEDTAVYYCATERRLGVWGQGTLVTVSS | 51 nM | 0.00441 s⁻¹ | 90200 M⁻¹ s⁻¹ |
| TIGIT-SC191 (Fc fusion, VHH-Fc fusion in assay) VHH: EVQLVESGGGLVQPGGSLRLSCAASGFVFSSDWMGWFRQAPGKEREWVASVLRGGYTWYADSVKGRFTISADNSKNTAYLQMNSLKPEDTAVYYCARGDSMDVWGQGTLVTVSS | 401 nM | 0.125 s⁻¹ | 313000 M⁻¹ s⁻¹ |
| TIGIT-SC195 (Fc fusion) VHH: EVQLVESGGGLVQPGGSLRLSCAASGFAFSSDWMGWFRQAPGKEREWVASVLRGGYTWYADSVKGRFTISADNSKNTAYLQMNSLKPEDTAVYYCARGEGFDYWGQGTLVTVSS | 478 nM | 0.142 s⁻¹ | 296000 M⁻¹ s⁻¹ |
| TIGIT-SC198 (Fc fusion, VHH-Fc fusion in assay) VHH: EVQLVESGGGLVQPGGSLRLSCAASGFTFSPSWMGWFRQAPGKEREYVASVLRGGYTWYADSVKGRFTISADNSKNTAYLQMNSLKPEDTAVYYCASEGDPDYWGQGTLVTVSS | 27.6 nM | 0.00285 s⁻¹ | 103000 M⁻¹ s⁻¹ |
| TIGIT-SC200 (Fc fusion, VHH-Fc fusion in assay) VHH: EVQLVESGGGLVQPGGSLRLSCAASGNTFSGGFMGWFRQAPGKEREWVASVLRGGYTWYADSVKGRFTISADNSKNTAYLQMNSLKPEDTAVYYCTRDGGFDPWGQGTLVTVSS | 5.34 nM | 0.00143 s⁻¹ | 290000 M⁻¹ s⁻¹ |
| TIGIT-SC201 (Fc fusion, VHH-Fc fusion in assay) VHH: EVQLVESGGGLVQPGGSLRLSCAASGFTFSPSWMGWFRQAPGKEREWVASVLRGGYTWYADSVKGRFTISADNSKNTAYLQMNSLKPEDTAVYYCTRDGGFDPWGQGTLVTVSS | 1590 nM | 0.000901 s⁻¹ | 567 M⁻¹ s⁻¹ |
| TIGIT-SC203 (Fc fusion, VHH-Fc fusion in assay) VHH: EVQLVESGGGLVQPGGSLRLSCAASGFTFSPSWMGWFRQAPGKEREWVASVLRGGYTWYADSVKGRFTISADNSKNTAYLQMNSLKPEDTAVYYCARDRGGSDWGQGTLVTVSS | 914 nM | 0.14 s⁻¹ | 153000 M⁻¹ s⁻¹ |
| TIGIT-SC92 (Fc fusion, VHH-Fc fusion in assay) VHH: EVQLVESGGGLVQPGGSLRLSCAASGSTIENYAMGWFRQAPGKEREFVAAIDWSGGSTYYADSVKGRFTISADNSKNTAYLQMNSLKPEDTAVYYCARWRSIWSGYDDYYYMDVWGQGTLVTVSS | 105 nM | 0.00289 s⁻¹ | 27500 M⁻¹ s⁻¹ |
| TIGIT-SC91 (Fc fusion, VHH-Fc fusion in assay) VHH: EVQLVESGGGLVQPGGSLRLSCAASGFTFSNYAMGWFRQAPGKEREFVAAINWNSRSTYYADSVKGRFTISADNSKNTAYLQMNSLKPEDTAVYYCARWRSIWSGYDDYYYMDVWGQGTLVTVSS | 5.42 nM | 0.0071 s⁻¹ | 1.31e+06 M⁻¹ s⁻¹ |
| TIGIT-SC93 (Fc fusion, VHH-Fc fusion in assay) VHH: EVQLVESGGGLVQPGGSLRLSCAASSRTVSSHAMGWFRQAPGKEREFVAAISWSGVTTYYADSVKGRFTISADNSKNTAYLQMNSLKPEDTAVYYCARWRSIWSGYDDYYYMDVWGQGTLVTVSS | 49.9 nM | 0.00407 s⁻¹ | 81500 M⁻¹ s⁻¹ |
| TIGIT-SC214 (Fc fusion, VHH-Fc fusion in assay) VHH: EVQLVESGGGLVQPGGSLRLSCAASGFTFGDSWMGWFRQAPGKEHEFVAAIWRSGTLKAYADSVKGRFTISADNSKNTAYLQMNSLKPEDTAVYYCTSYDAVAGTRDFWGQGTLVTVSS | 6.13 nM | 0.0248 s⁻¹ | 4.05e+06 M⁻¹ s⁻¹ |
| TIGIT-SC4 (Fc fusion, VHH-Fc fusion in assay) VHH: EVQLVESGGGLVQPGGSLRLSCAASGSIDRINAMGWFRQATGKEREWVASVLRGGYTWYADSVKGRFTISADNSKNTAYLQMNSLKPEDTAVYYCARDSYSTSFWFDPWGQGTLVTVSS | 6.24 nM | 0.00222 s⁻¹ | 356000 M⁻¹ s⁻¹ |
| TIGIT-SC33 (Fc fusion, VHH-Fc fusion in assay) VHH: EVQLVESGGGLVQPGGSLRLSCAASGFLFDSYAMGWFRQAPGKEREFVAAVSQSGLLTFYADSVKGRFTISADNSKNTAYLQMNSLKPEDTAVYYCASRTSSWWWFDPWGQGTLVTVSS | 6.72 nM | 0.00107 s⁻¹ | 182000 M⁻¹ s⁻¹ |
| TIGIT-SC86 (Fc fusion, VHH-Fc fusion in assay) VHH: EVQLVESGGGLVQPGGSLRLSCAASGIIASDSAMGWFRQAPGKEREFVAAIRWSGKETWYADSVKGRFTISADNSKNTAYLQMNSLKPEDTAVYYCARWGGVTFGGVYPLEYWGQGTLVTVSS | 7.14 nM | 0.00212 s⁻¹ | 341000 M⁻¹ s⁻¹ |
| TIGIT-SC88 (Fc fusion, VHH-Fc fusion in assay) VHH: EVQLVESGGGLVQPGGSLRLSCAASGFTFSSDWMGWFRQAPGKEREFVAAINRSGHSTSYADSVKGRFTISADNSKNTAYLQMNSLKPEDTAVYYCARWGGVTFGGVYPLEYWGQGTLVTVSS | 22 nM | 0.00204 s⁻¹ | 92500 M⁻¹ s⁻¹ |
| TIGIT-SC103 (Fc fusion, VHH-Fc fusion in assay) VHH: EVQLVESGGGLVQPGGSLRLSCAASGTITSAVFMGWFRQAPGKEREFVAAISWSGGDTNYADSVKGRFTISADNSKNTAYLQMNSLKPEDTAVYYCARWGGITFGGVYPLDYWGQGTLVTVSS | 34.3 nM | 0.00498 s⁻¹ | 145000 M⁻¹ s⁻¹ |
| TIGIT-SC74 (Fc fusion, VHH-Fc fusion in assay) VHH: EVQLVESGGGLVQPGGSLRLSCAASGRTFANNAMGWFRQAPGKEREFVAAINWSGGNTYYADSVKGRFTISADNSKNTAYLQMNSLKPEDTAVYYCAKWSYYGSGLYGMDVWGQGTLVTVSS | 18 nM | 0.00329 s⁻¹ | 183000 M⁻¹ s⁻¹ |
| TIGIT-SC75 (Fc fusion, VHH-Fc fusion in assay) VHH: EVQLVESGGGLVQPGGSLRLSCAASGFIGNYHAMGWFRQAPGKEREFVAAIRWSDGSSYYADSVKGRFTISADNSKNTAYLQMNSLKPEDTAVYYCAKWSYYGSGLYGMDVWGQGTLVTVSS | 7.44 nM | 0.000376 s⁻¹ | 50500 M⁻¹ s⁻¹ |
| TIGIT-SC82 (Fc fusion, VHH-Fc fusion in assay) VHH: EVQLVESGGGLVQPGGSLRLSCAASGSMSSNYAMGWFRQAPGKEREFVAAIDWSGGNTYYADSVKGRFTISADNSKNTAYLQMNSLKPEDTAVYYCAKWFYYGSGLYTLDVWGQGTLVTVSS | 57 nM | 0.00324 s⁻¹ | 56700 M⁻¹ s⁻¹ |
| TIGIT-SC83 (Fc fusion, VHH-Fc fusion in assay) VHH: EVQLVESGGGLVQPGGSLRLSCAASGRTFSDDAMGWFRQAPGKEREFVAAISRSGGNTYYADSVKGRFTISADNSKNTAYLQMNSLKPEDTAVYYCAKWFYYGSGLYTLDVWGQGTLVTVSS | 29.1 nM | 0.00378 s⁻¹ | 132000 M⁻¹ s⁻¹ |
| TIGIT-SC76 (Fc fusion, VHH-Fc fusion in assay) VHH: EVQLVESGGGLVQPGGSLRLSCAASGFTFSDYAMGWFRQAPGKERELVARIGHDGSTDYADSVKGRFTISADNSKNTAYLQMNSLKPEDTAVYYCLGGLDPWGQGTLVTVSS | 7.64 nM | 0.00717 s⁻¹ | 938000 M⁻¹ s⁻¹ |
| TIGIT-SC106 (Fc fusion, VHH-Fc fusion in assay) VHH: EVQLVESGGGLVQPGGSLRLSCAASGFPFDDYAMGWFRQAPGKERELVAVIRWTGMSTHYADSVKGRFTISADNSKNTAYLQMNSLKPEDTAVYYCAKGIAVAGAFDYWGQGTLVTVSS | 7.99 nM | 0.000753 s⁻¹ | 95500 M⁻¹ s⁻¹ |
| TIGIT-SC55 (Fc fusion, VHH-Fc fusion in assay) VHH: EVQLVESGGGLVQPGGSLRLSCAASGFPFDDYAMGWFRQAPGKERELVAVIRWTGMNTHYADSVKGRFTISADNSKNTAYLQMNSLKPEDTAVYYCAKGIAVAGAFDYWGQGTLVTVSS | 28.5 nM | 0.00231 s⁻¹ | 90600 M⁻¹ s⁻¹ |
| TIGIT-SC9 (Fc fusion, VHH-Fc fusion in assay) VHH: EVQLVESGGGLVQPGGSLRLSCAASGNTFSGGFMGWFRQAPGKEREWVASVLRGGYTWYADSVKGRFTISADNSKNTAYLQMNSLKPEDTAVYYCVNGYSYGRDYWGQGTLVTVSS | 9.35 nM | 0.00159 s⁻¹ | 268000 M⁻¹ s⁻¹ |
| TIGIT-SC71 (Fc fusion, VHH-Fc fusion in assay) VHH: EVQLVESGGGLVQPGGSLRLSCAASGSIRSLNAMGWFRQAPGKEREFVAAINWDSARTYYADSVKGRFTISADNSKNTAYLQMNSLKPEDTAVYYCARWSAKRHSDTMTYYMDVWGQGTLVTVSS | 10.5 nM | 0.00436 s⁻¹ | 413000 M⁻¹ s⁻¹ |
| TIGIT-SC122 (Fc fusion, VHH-Fc fusion in assay) VHH: EVQLVESGGGLVQPGGSLRLSCAASGFSFDDYVMGWFRQAPGKEREFVAAISMSGGYTHYADSVKGRFTISADNSKNTAYLQMNSLKPEDTAVYYCAREGYYGSGSYLVYWGQGTLVTVSS | 10.7 nM | 0.00217 s⁻¹ | 524000 M⁻¹ s⁻¹ |

Reference: patent US20260184782A1 (TWIST BIOSCIENCE, published 2026)
